# According to PMC11078644, “Nesprin-2 is a novel scaffold protein for telethonin and FHL-2 in the cardiomyocyte sarcomere” (The Journal of Biological Chemistry, 2024):
# B1: HA-tagged telethonin WT, purified recombinant protein, without PKD pre-treatment [not stated] / GST-nesprin-2 SR51-53 (amino acids 6018-6354) [human] (parent)
# chain 1: MATSELSCEVSEENCERREAFWAEWKDLTLSTRPEEGCSLHEEDTQRHETYHQQGQCQVLVQRSPWLMMRMGILGRGLQEYQLPYQRVLPLPIFTPAKMGATKEEREDTPIQLQELLALETALGGQCVDRQEVAEITKQLPPVVPVSKPGALRRSLSRSMSQEAQRG
# chain 2: KETFAFIQQLDKNMSNLRTWLARIESELSKPVVYDVCDDQEIQKRLAEQQDLQRDIEQHSAGVESVFNICDVLLHDSDACANETECDSIQQTTRSLDRRWRNICAMSMERRMKIEETWRLWQKFLDDYSRFEDWLKSAERTAACPNSSEVLYTSAKEELKRFEAFQRQIHERLTQLELINKQYRRLARENRTDTASRLKQMVHEGNQRWDNLQRRVTAVLRRLRHFTNQREEFEGTRESILVWLTEMDLQLTNVEHFSESDADDKMRQLNGFQQEITLNTNKIDQLIVFGEQLIQKSEPLDAVLIEDELEELHRYCQEVFGRVSRFHRRLTSCTPGL
# Variants of: B1
# Test: GST pull-down, densitometry
# Details: with GST-nesprin-2 SR51-53 (amino acids 6018-6354) [human]; without PKD pre-treatment (P-); n = 5; parent: 1; read off a plot
row,Variant,ratio to parent
1,chain 1 S157A S161A,1.1
